The source of these data is patent US12214052 (HOSPITAL FOR SICK CHILDREN, dated 2025).

First the molecules themselves.
T1: NANP 5-mer peptide (NANP5) (Plasmodium falciparum)
T1 peptide: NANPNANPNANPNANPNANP

B1: 1210 Fab (Fab, V domains shown)
VH: QVQLVESGGGVVQPGRSLRLSCAASGFTFSNYGMHWVRQAPGKGLEWVAVIWYDGSKKYYADSVKGRFTISRDNSKNTLYLQMNSLRAEDTAVYYCARVRDSSDYYGDAFDIWGQGTMVTVSS
VL: DIQMTQSPSTLSASVGDRVTITCRASQSISSWLAWYQQKPGKAPKLLIYKASNLESGVPLRFSGSGSGTEFTLTISSLQPDDFATYYCQQYNNYWTFGQGTKVEIK
B2: 1210_GL Fab (Fab, V domains shown)
VH: B1 VH with N31S, K57N
VL: not shown
B3: 1210_H.K56_Nrev_K.N93_Srev (1210_NS) Fab (Fab, V domains shown)
VH: B1 VH with K57N
VL: B1 VL with N93S
B4: 1210 H.D100Ymut_K.N92Ymut (1210_YY) Fab (Fab, V domains shown)
VH: B1 VH with D104Y
VL: B1 VL with N92Y

Numbering of substitutions follows the chain as printed.

This assay concerns the target T1, NANP 5-mer peptide (NANP5). Kind of assay: ITC. For orientation: ITC needs no label: the signal is the heat of the interaction.
Experimental: Calorimetric titration experiments were performed with an Auto-iTC200 instrument (Malvern) at 25° C. Proteins were dialyzed against 20 mM Tris pH 8.0 and 150 mM sodium chloride overnight at 4° C. […] Experiments were performed at least three times and the mean and standard error of the mean were reported (FIG. 30). The experimental data were analyzed according to a 1:1 binding model by means of Origin 7.0.
With B1, the binding stoichiometry was ~2.
On to B2, for which the binding stoichiometry was ~2.
Under B3 stands ~2; under B4, ~2.
